Patent US20140356358A1 (Amgen, published 2014)
Residue numbers refer to the chain shown, from its start.

B1: L5 isolate with insertion SEQ ID NO: 409 (other)
chain: EPKSCDKTHTCPPCPAPELLGGPSVFLFPPKPKDTLMISRTPEVTCVVVDVSHEDPEVKFNWYVDGVEVHNAKTKPREEQYNSTYRVVSVLTVLHQDWLNGKEYKCKVSNKALPAPIEKTISKAKGQPREPQVYTLPPSRDELTKNQVSLTCLVKGFYPSDIAVEWESNGGCVYDVKKCGGGQPENNYKTTPPVLDSDGSFFLYSKLTVDKSRWQQGNVFSCSVMHEALHNHYTQKSLSLSPGK
B2: L5 isolate with insertion SEQ ID NO: 426 (other)
chain: B1 chain with V173M, Y174Q, D175P, V176W, K177I, K178N
B3: L5 isolate with insertion SEQ ID NO: 411 (other)
chain: B1 chain with V173N, Y174M, D175L, V176W, K177G, K178S
B4: L5 isolate with insertion SEQ ID NO: 413 (other)
chain: B1 chain with V173M, Y174T, D175Q, V176Y, K177N, K178W
B5: L5 isolate with insertion SEQ ID NO: 416 (other)
chain: B1 chain with V173E, Y174T, D175H, V176Y, K177T, K178Y
B6: L5 isolate with insertion SEQ ID NO: 419 (other)
chain: B1 chain with V173Q, Y174N, D175R, V176S, K177Y, K178W
B7: L5 isolate with insertion SEQ ID NO: 418 (other)
chain: B1 chain with V173I, Y174T, D175E, V176F, K177S, K178H
B8: L5 isolate with insertion SEQ ID NO: 412 (other)
chain: B1 chain with V173M, Y174Q, D175P, V176W, K177A, K178F
B9: L5 isolate with insertion SEQ ID NO: 415 (other)
chain: B1 chain with V173Y, Y174I, D175T, V176Q, K178L
B10: L5 isolate with insertion SEQ ID NO: 421 (other)
chain: B1 chain with V173N, Y174P, D175H, V176R, K177T, K178P
B11: L5 isolate with insertion SEQ ID NO: 425 (other)
chain: B1 chain with V173I, Y174G, D175P, V176F, K177W, K178W
B12: L5 isolate with insertion SEQ ID NO: 420 (other)
chain: B1 chain with V173H, Y174G, D175T, V176K, K177Q, K178F
B13: L5 isolate with insertion SEQ ID NO: 422 (other)
chain: B1 chain with V173Q, Y174H, D175S, V176P, K177P, K178L
B14: L5 isolate with insertion SEQ ID NO: 417 (other)
chain: B1 chain with V173T, Y174E, D175Q, K177M, K178W
B15: L5 isolate with insertion SEQ ID NO: 424 (other)
chain: B1 chain with V173Q, D175P, V176R, K178L
B16: L5 isolate with insertion SEQ ID NO: 429 (other)
chain: B1 chain with V173P, Y174P, D175W, V176P, K177E, K178R
B17: L5 isolate with insertion SEQ ID NO: 414 (other)
chain: B1 chain with Y174N, D175T, V176W, K177W, K178S
B18: L5 isolate with insertion SEQ ID NO: 428 (other)
chain: B1 chain with V173E, Y174M, D175E, V176N, K177A, K178W
B19: L5 isolate with insertion SEQ ID NO: 423 (other)
chain: B1 chain with V173N, Y174H, D175E, V176E, K177T, K178F

What follows are binders tested against T1, human neonatal Fc receptor (hFcRn) (human, UniProt P55899 24-290; P61769 21-119) (assay: phage ELISA pH 6).
T1 construct: Biotinylated in the ELISA, Octet and yeast assays; also called human FcRn; huFcRn
Description: (§1) Approximately 100 μL of biotinylated human FcRn at 2 μg/mL was added to the wells of MAXISORP™ plates coated with 10 μg/mL streptavidin. After washing with PBS plus 0.05% Tween 20 (PBST) five times, phage from the overnight cultures in MES buffer at pH 6.0 or pH 7.4 were added to the plates and incubated at room temperature for 1 hr. A horseradish peroxidase (HRP)-conjugated anti-M13 antibody was used to detect the binding phage, and the plates were scored by a microtiter plate reader using a wavelength in the visible range.
(§2) Binding was assessed by a quantitative enzyme-linked immunoadsorbent assay (ELISA). The ELISA scores reflect binding affinity, with higher scores meaning higher affinity. Typically, scores higher than about 3˜5 indicate binding above background. For library L5, the insertions are between the N169 and G170 according to the numbering in FIG. 2. For libraries 6A and 6B, the insertions are between L143 and T144 according to the numbering in FIG. 2.
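Also: higher score means stronger binding and above about 3 to 5 exceeds background.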

T1 sequence (P55899 24-290 limits assumed, chain 1 of 2): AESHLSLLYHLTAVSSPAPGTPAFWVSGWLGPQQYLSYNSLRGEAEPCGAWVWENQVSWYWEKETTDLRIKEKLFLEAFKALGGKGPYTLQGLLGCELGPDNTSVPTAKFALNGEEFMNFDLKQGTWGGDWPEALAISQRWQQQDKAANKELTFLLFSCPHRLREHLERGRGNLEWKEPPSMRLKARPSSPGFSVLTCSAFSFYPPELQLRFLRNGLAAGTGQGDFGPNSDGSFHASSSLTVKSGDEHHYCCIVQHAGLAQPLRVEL
T1 sequence (P61769 21-119 limits assumed, chain 2 of 2): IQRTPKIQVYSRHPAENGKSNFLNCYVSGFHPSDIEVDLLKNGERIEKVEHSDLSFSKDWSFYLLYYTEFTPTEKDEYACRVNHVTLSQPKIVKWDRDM

Row | Binder | ELISA score
1 | B1 | 71.2
2 | B2 | 59.2
3 | B3 | 68.6
4 | B4 | 65.6
5 | B5 | 63
6 | B6 | 61
7 | B7 | 61.2
8 | B8 | 67.4
9 | B9 | 63.6
10 | B10 | 60.9
11 | B11 | 59.2
12 | B12 | 61
13 | B13 | 60.3
14 | B14 | 62.2
15 | B15 | 59.6
16 | B16 | 58.3
17 | B17 | 65.2
18 | B18 | 58.5
19 | B19 | 60.2

These binders were tested against T1, human neonatal Fc receptor (hFcRn) (assay: phage ELISA pH 7.4).
Description: as §1, §2

Row | Binder | ELISA score
20 | B1 | 0.7
21 | B2 | 0.3
22 | B3 | 0.6
23 | B4 | 0.5
24 | B5 | 0.5
25 | B6 | 0.3
26 | B7 | 0.4
27 | B8 | 0.4
28 | B9 | 0.7
29 | B10 | 0.3
30 | B11 | 0.3
31 | B12 | 0.5
32 | B13 | 0.3
33 | B14 | 0.3
34 | B15 | 0.3
35 | B16 | 0.3
36 | B17 | 0.3
37 | B18 | 0.5
38 | B19 | 0.4
